Patent US20050037394, “Method for in vitro selection of 2'-substituted nucleic acids” (published 2005)

Legend:
IFN-gamma [1] = molecular target: T1, IFN-gamma (Homo sapiens, UniProt P01579 P01579:24-161); experiment: inhibition; ELISA day 2; text assigns ARC872 to E3 but printed sequence matches F3; details: tags: R&D Systems, Minneapolis; chain copies: 2; putative G4
Experimental: (§1) IFN-γ ELISA: The following ELISA method was used to measure the ability of IFN-γ aptamers to inhibit hIFN-γ from binding to the IFNγ-R1 receptor. To capture the IFNγ-R1, 175 ng of IFNγ-R1 (R&D systems, Minneapolis, Minn.) in 100 μl of PBS (pH 7.4) was incubated in each well of a Nunc Maxisorb plate (Nunc, Rochester, N.Y.) for 2 hours at room temperature. The solution was discarded and the plate was washed 3 times with 200 μl of TBS-T (25 mM Tris-HCl pH 7.5, 150 mM NaCl and 0.01% Tween −20). The plate was then blocked with 200 μl of 5% nonfat dry milk in TBS-T for 30 minutes at room temperature. After blocking, the plate was washed 3 times with 200 μl of TBS-T. Then, 100 μl of various concentrations of aptamers mixed with 5 nmoles of IFN-γ (R & D Systems) were incubated in appropriate wells for 1.5 hours at room temperature. […] Subsequently, 100 μl of 2 N H₂SO₄ was added to stop the reaction and the plate was read in a SpectraMax 96 well plate reader at […].
(§2) IFNγ-R1 Binding Inhibition with hIFN-γ Aptamers: Five full length and 2 minimized aptamers to IFN-γ were tested for receptor binding inhibition activity using the ELISA method described above. […] IC₅₀'s for the duplicate assays were calculated and are shown in Table 22 below along with Kd values for each of the respective aptamers.

IFN-gamma [2] = molecular target: T1, IFN-gamma; experiment: filter; 1x DPBS, 0.1 mg/ml BSA; Table 21 gives 206; details: tags: R&D Systems, Minneapolis; chain copies: 2; label: 5'-32P
IFN-gamma [3] = molecular target: T1, IFN-gamma; experiment: inhibition; ELISA day 2; text assigns ARC873 to F3 but printed sequence matches E3; details: tags: R&D Systems, Minneapolis; chain copies: 2; putative G4
Experimental: as §1, §2

IFN-gamma [4] = molecular target: T1, IFN-gamma; experiment: filter; 1x DPBS, 0.1 mg/ml BSA; Table 21 gives 169.28; details: tags: R&D Systems, Minneapolis; chain copies: 2; label: 5'-32P
IFN-gamma [5] = molecular target: T1, IFN-gamma; experiment: inhibition; IFN-gamma/IFN-gamma-R1 ELISA day 1; day 2 270 nM; details: tags: R&D Systems, Minneapolis; chain copies: 2; label: 5'-32P
Experimental: as §1, §2

VEGF [6] = molecular target: T2, VEGF (UniProt P15692-4 P15692-4:27-191); experiment: competition; 125I-VEGF binding to HUVEC; details: chain copies: 2
Description: FIG. 5 is a plot of ARC224 and ARC225 binding to VEGF. […] The supernatant was removed, the cells were washed, and bound VEGF was counted in a scintillation counter. ARC225 has the same sequence as ARC224 and 2′-OMe to 2′-OH substitutions at positions 7, 10, 14, 16, 19, 22 and 24 numbered from the 5′-terminus.

VEGF [7] = molecular target: T2, VEGF; experiment: filter; dot-blot in PBS; details: chain copies: 2
Experimental: (§3) Binding assays were performed with trace ³²P-body-labelled transcripts that were incubated with various protein concentrations in silanized wells, these were then passed through a sandwich of a nitrocellulose membrane over a nylon membrane. Protein-bound RNA is visualized on the NC membrane, unbound RNA on the nylon membrane. The proportion binding is then used to calculate affinity (see FIGS. 4, 5, and 6). The nomenclature “mGXG” indicates a substitution of 2′-OH G for 2′-OMe G at position “X”, as numbered sequentially from the 5′-terminus. Thus, mG7G ARC224 is ARC224 with a 2′-OH at position 7. ARC225 is ARC224 with 2′-OMe to 2′-OH substitutions at positions 7, 10, 14, 16, 19, 22 and 24. All constructs (initially identified by SELEX™) were generated by solid-phase chemical synthesis.

IFN-gamma [8] = molecular target: T1, IFN-gamma; experiment: filter; 1x DPBS, 0.1 mg/ml BSA; Table 21 gives 97; details: tags: R&D Systems, Minneapolis; chain copies: 2; label: 5'-32P
IFN-gamma [9] = molecular target: T1, IFN-gamma; experiment: inhibition; IFN-gamma/IFN-gamma-R1 ELISA day 1; day 2 100 nM; details: tags: R&D Systems, Minneapolis; chain copies: 2; label: 5'-32P
Experimental: as §1, §2

VEGF [10] = molecular target: T2, VEGF; experiment: FP; placeholder corrected: dot-blot nitrocellulose/nylon filter in PBS; details: chain copies: 2
Experimental: as §3

IFN-gamma [11] = molecular target: T1, IFN-gamma; experiment: filter; 1x DPBS, 0.1 mg/ml BSA; Table 21 gives 167.31; details: tags: R&D Systems, Minneapolis; chain copies: 2; label: 5'-32P
IFN-gamma [12] = molecular target: T1, IFN-gamma; experiment: inhibition; IFN-gamma/IFN-gamma-R1 ELISA day 1; day 2 70 nM; details: tags: R&D Systems, Minneapolis; chain copies: 2; label: 5'-32P
Experimental: as §1, §2

IFN-gamma [13] = molecular target: T1, IFN-gamma; experiment: filter; 1x DPBS, 0.1 mg/ml BSA; Table 21 gives 227.87; details: tags: R&D Systems, Minneapolis; chain copies: 2; label: 5'-32P
IFN-gamma [14] = molecular target: T1, IFN-gamma; experiment: inhibition; IFN-gamma/IFN-gamma-R1 ELISA day 1; day 2 190 nM; details: tags: R&D Systems, Minneapolis; chain copies: 2; label: 5'-32P
Experimental: as §1, §2

[15] = molecular target: T3, Complement C5 full length (Homo sapiens, UniProt P01031;P01031 P01031:19-673,P01031:678-1676); experiment: filter; 1x DPBS, extent of binding 20%; details: tags: Quidel Corporation, San Diego
[16] = molecular target: T3, Complement C5 full length; experiment: inhibition; 0.2% human serum, sheep erythrocytes, GVB++, 25 C; details: tags: Quidel Corporation, San Diego
Experimental: Hemolysis Assay: The effect of the AMX221.E1 clone on the classical pathway of the complement system was analyzed using a hemolysis assay compared to both ARC186 (Anti-C5 aptamer, positive control) and unselected dRmY pool (negative control). In the assay of hemolytic inhibition, a solution of 0.2% whole human serum was mixed with antibody-coated sheep erythrocytes (Diamedix EZ Complement CH50 Test, Diamedix Corporation, Miami, Fla.) in the presence oftitrated AMX221.E1. The assay was run in veronal-buffered saline containing calcium, magnesium and 1% gelatin (GVB⁺⁺ complement buffer) and incubated for 1 hr at 25° C. After incubation the samples were centrifuged. The optical density at 415 nm (OD₄₁₅) of the supernatant was read. The inhibition of hemolysis activity is expressed as % hemolysis activity compared to control. The IC₅₀ of the clone was calculated to be about 30 nM.

T1 sequence (P01579 24-161, one chain of several): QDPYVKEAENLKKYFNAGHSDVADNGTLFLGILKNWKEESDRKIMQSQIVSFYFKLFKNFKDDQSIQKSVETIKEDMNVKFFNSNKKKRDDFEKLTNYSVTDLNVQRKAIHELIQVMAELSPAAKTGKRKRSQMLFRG
T2 sequence (P15692 other isoform, or with tags, fused parts or gaps): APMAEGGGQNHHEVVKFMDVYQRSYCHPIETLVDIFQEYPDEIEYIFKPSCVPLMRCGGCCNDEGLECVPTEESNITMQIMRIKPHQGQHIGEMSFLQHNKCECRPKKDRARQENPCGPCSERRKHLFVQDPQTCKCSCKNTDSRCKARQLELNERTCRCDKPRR
T3 sequence (P01031 19-673, chain 1 of 2): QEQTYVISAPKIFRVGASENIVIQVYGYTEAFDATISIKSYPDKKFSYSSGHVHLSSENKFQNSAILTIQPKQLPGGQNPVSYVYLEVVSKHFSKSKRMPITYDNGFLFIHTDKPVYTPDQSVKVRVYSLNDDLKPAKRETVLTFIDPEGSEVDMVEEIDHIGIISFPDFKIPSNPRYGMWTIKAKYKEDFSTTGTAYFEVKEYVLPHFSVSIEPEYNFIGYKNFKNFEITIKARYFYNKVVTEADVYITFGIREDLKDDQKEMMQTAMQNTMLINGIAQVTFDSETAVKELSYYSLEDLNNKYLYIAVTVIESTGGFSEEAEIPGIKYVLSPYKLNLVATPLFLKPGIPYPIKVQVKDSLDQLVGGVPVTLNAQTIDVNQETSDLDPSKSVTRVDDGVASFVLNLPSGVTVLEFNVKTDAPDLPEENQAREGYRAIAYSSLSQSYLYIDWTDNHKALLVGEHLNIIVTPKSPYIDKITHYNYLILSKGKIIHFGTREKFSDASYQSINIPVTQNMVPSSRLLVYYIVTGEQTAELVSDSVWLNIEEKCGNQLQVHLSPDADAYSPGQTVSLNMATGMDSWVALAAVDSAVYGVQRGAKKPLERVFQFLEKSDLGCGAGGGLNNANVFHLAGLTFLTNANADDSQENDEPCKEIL
T3 sequence (P01031 678-1676, chain 2 of 2): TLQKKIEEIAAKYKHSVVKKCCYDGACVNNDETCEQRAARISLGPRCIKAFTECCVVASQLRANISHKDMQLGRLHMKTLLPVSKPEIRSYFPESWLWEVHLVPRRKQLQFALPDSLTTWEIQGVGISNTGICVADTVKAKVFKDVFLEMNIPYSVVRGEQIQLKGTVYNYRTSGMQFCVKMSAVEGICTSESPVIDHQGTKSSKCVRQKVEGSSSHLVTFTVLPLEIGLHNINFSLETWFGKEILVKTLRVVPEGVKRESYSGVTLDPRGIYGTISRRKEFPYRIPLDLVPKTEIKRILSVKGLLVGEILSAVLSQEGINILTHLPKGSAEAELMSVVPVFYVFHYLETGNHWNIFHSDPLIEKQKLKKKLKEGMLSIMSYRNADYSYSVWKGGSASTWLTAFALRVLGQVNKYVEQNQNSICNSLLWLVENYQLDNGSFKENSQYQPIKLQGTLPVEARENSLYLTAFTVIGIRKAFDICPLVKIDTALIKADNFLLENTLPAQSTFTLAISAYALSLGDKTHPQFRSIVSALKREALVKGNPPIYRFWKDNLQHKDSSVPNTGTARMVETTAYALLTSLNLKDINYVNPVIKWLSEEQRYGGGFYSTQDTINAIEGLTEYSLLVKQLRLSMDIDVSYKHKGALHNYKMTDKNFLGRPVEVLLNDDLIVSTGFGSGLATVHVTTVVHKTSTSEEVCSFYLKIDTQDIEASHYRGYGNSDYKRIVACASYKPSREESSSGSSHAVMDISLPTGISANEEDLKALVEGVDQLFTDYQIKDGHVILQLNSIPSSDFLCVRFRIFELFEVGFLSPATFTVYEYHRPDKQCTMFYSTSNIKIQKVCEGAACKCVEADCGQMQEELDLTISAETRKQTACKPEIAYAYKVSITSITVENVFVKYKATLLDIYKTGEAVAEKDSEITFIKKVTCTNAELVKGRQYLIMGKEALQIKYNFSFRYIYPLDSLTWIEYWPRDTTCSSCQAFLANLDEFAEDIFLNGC

Work on GGGCGGUUGGGGUCGGGGAGGAUGGUACAGGG (mixed, dRmY: deoxy A,G; 2'-OMe C,U) [ARC872] yielded an IC50 (IFN-gamma [1]) of 200 nM.

B1: ARC819 (AMX(192)_F3) (mixed)
DNA: GGGAGAGGAGAGAACGTTCTACGGGCGGTTGGGGTCGGGGAGGATGGTACAGGGTCGATCGATCGATCATCGATG
modifications: dRmY: deoxy A,G; 2'-OMe C,U (cDNA printed, T=U)
In the case of B1, the Kd (IFN-gamma [2]) is reported as 180 nM.

Work on GGGUGGCUGGGGCAGGGGAGGUAGGUAGGG (mixed, dRmY: deoxy A,G; 2'-OMe C,U) [ARC873] yielded an IC50 (IFN-gamma [3]) of 330 nM.

B2: ARC820 (AMX(192)_D11) (mixed)
DNA: GGGAGAGGAGAGAACGTTCTACGGGGAGGAGGGTGGGGTAGCAGGTGTGGCAGGTCGATCGATCGATCATCGATG
modifications: dRmY: deoxy A,G; 2'-OMe C,U (cDNA printed, T=U)
Work on B2 yielded a Kd (IFN-gamma [4]) of 170 nM and an IC50 (IFN-gamma [5]) of 280 nM.

B3: ARC224 (ssRNA)
RNA: CGAUAUGCAGUUUGAGAAGUCGCGCAUUCG
modifications: 2'-OMe at all residues; 3'-inverted dT [2'-OMe at 1-30; 3'-inverted dT after nt 30 (not written in sequence)]
With B3 the IC50 (VEGF [6]) was roughly 2 nM and the Kd (VEGF [7]) was 3.9 nM.

B4: ARC821 (AMX(216)_A7) (mixed)
DNA: GGGAGAGGAGAGAACGTTCTACGGGGGTCGTGGGAGTAAGGGGGTGTAGGTAGGTCGATCGATCGATCATCGATG
modifications: dRmY: deoxy A,G; 2'-OMe C,U (cDNA printed, T=U)
B4 was tested, and the Kd (IFN-gamma [8]) was 140 nM and the IC50 (IFN-gamma [9]) was 130 nM.

B5: ARC259 (ssRNA)
RNA: ACGCAGUUUGAGAAGUCGCGCGU
modifications: 2'-OMe at all residues; 3'-inverted dT [2'-OMe at 1-23; 3'-inverted dT after nt 23 (not written in sequence); base pair swap at 2 (U>C) and 22 (A>G)]
Binder B5 has a Kd (VEGF [10]) of 1.4 nM.

B6: ARC245 (ssRNA)
RNA: AUGCAGUUUGAGAAGUCGCGCAU
modifications: 2'-OMe at all residues; 3'-inverted dT [2'-OMe at 1-23; 3'-inverted dT after nt 23 (not written in sequence)]
In the case of B6, the Kd (VEGF [7]) is reported as 2.1 nM.

B7: ARC789 (AMX(192)_A5) (mixed)
DNA: GGGAGAGGAGAGAACGTTCTACGTTTGCGGTCAGGATGGGGTGGTGGGAGGTCGATCGATCGATCATCGATG
modifications: dRmY: deoxy A,G; 2'-OMe C,U (cDNA printed, T=U)
In the case of B7, the Kd (IFN-gamma [11]) is reported as 150 nM and the IC50 (IFN-gamma [12]) is reported as 40 nM.

B8: ARC818 (AMX(192)_E3) (mixed)
DNA: GGGAGAGGAGAGAACGTTCTACGGGTGGCTGGGGCAGGGGAGGTAGGTAGGGTCGATCGATCGATCATCGATG
modifications: dRmY: deoxy A,G; 2'-OMe C,U (cDNA printed, T=U)
Work on B8 yielded a Kd (IFN-gamma [13]) of 180 nM and an IC50 (IFN-gamma [14]) of 220 nM.

B9: AMX221.E1 (mixed)
DNA: GGGAGAGGAGAGAACGTTCTACCTTGGTTTGGCACAGGCATACATACGCAGGGGTCGATCGATCGATCATCGATG
modifications: dRmY: deoxy A,G; 2'-OMe C,U (cDNA printed, T=U)
For B9, the Kd [15] was roughly 140 nM and the IC50 [16] was roughly 30 nM.
